Test results as given in publication PMC11479839.
Where two headings read alike, the source gives them in different places.

What was measured:
N-myc;MAX [1] = target: T1, N-myc;MAX (human;human, UniProt P04198;P61244 1-464;1-160, |); assay: fluorescence anisotropy
N-myc;MAX [2] = target: T1, N-myc;MAX; assay: fluorescence anisotropy; remark: listed apart in the source

T1 sequence (P04198 whole entry, chain 1 of 2): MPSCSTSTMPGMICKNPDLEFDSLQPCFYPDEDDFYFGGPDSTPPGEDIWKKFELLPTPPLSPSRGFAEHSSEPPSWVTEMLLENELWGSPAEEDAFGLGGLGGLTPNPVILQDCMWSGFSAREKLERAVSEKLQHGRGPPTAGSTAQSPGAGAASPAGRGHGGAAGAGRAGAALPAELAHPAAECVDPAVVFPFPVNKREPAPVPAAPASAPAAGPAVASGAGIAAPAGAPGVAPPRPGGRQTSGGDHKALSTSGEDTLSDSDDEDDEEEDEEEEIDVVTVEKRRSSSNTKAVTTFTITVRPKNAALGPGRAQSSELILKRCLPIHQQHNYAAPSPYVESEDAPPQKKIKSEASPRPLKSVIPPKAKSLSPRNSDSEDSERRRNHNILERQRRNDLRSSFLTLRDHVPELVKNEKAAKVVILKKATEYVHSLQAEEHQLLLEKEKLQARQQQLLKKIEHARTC
T1 sequence (P61244 whole entry, chain 2 of 2): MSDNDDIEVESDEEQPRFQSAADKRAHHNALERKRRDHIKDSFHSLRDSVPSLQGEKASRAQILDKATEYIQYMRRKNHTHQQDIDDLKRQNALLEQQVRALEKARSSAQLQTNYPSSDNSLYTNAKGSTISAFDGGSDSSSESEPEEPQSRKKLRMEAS

| Binder | Kd (N-myc;MAX [1]) | Kd (N-myc;MAX [2]) |
| --- | --- | --- |
| 1Ebox (dsDNA) DNA 1: AGCTTAACTGACCACGTGGTCAACTA DNA 2: TAGTTGACCACGTGGTCAGTTAAGCT | ~150 nM | – |
| 1 NC Ebox CATATG (table: NC Ebox-TC; text: NCE-TA) (dsDNA) DNA 1: AGCTTAACTGACCATATGGTCAACTA DNA 2: TAGTTGACCATATGGTCAGTTAAGCT | – | ~735 nM |
| 1 NC Ebox CATCTG (table: NC Ebox-TA; text: NCE-TC) (dsDNA) DNA 1: AGCTTAACTGACCATCTGGTCAACTA DNA 2: TAGTTGACCAGATGGTCAGTTAAGCT | – | ~655 nM |
